Laboratory results: US8242083B2, “Kinase substrates” (PerkinElmer Health Sciences, Inc., priority 2008, dated 2012)

Columns and labels:
Assay type in all cases: biochemical
EphA6 = target: T1, EphA6 (Homo sapiens, UniProt Q9UF33); assay: TR-FRET kinase assay, EphA6; settings: Kinase Concentration 0.5 nM; 50 nM ULight-labeled substrate, 200 micromolar ATP, 2 hours
T1 sequence (Q9UF33 23-1036): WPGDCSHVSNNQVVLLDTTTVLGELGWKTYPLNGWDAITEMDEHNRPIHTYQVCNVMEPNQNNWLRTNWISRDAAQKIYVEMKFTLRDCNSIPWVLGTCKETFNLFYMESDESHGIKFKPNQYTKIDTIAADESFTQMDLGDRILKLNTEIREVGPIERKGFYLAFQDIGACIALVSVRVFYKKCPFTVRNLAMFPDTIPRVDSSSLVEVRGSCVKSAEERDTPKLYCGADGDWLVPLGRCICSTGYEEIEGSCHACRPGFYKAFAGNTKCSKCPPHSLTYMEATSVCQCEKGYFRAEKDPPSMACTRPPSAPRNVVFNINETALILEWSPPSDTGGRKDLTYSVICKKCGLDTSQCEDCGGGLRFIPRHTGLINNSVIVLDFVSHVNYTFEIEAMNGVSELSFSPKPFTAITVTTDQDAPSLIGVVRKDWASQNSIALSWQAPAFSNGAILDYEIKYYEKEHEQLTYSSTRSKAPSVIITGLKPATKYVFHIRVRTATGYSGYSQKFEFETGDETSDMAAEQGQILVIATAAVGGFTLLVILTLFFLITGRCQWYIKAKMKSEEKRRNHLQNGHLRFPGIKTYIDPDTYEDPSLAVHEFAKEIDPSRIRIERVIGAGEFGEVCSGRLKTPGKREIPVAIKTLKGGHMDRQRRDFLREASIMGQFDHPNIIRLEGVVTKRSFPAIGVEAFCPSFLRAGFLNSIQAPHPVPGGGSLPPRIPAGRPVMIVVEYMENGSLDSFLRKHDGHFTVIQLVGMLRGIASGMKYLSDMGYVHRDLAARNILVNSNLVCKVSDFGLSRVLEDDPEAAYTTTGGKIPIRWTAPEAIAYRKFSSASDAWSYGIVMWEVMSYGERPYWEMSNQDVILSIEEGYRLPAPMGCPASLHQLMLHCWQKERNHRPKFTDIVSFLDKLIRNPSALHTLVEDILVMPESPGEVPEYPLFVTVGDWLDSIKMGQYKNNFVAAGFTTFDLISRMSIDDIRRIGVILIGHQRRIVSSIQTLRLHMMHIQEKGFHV
Description: (§1) TR-FRET kinase assays are performed under standardized conditions: various individual kinases are incubated with 50 nM of kinase substrate BRB1 labeled with the TR-FRET acceptor dye ULight (PerkinElmer) and 200 micromolar ATP in 10 μL of kinase assay buffer (50 mM HEPES pH7.5, 10 mM MgCl2, 3 mM MnCl2, 1 mM EGTA, 2 mM DTT and 0.01% Tween-20) for 2 hours at room temperature. Reactions are stopped with EDTA, and anti-phospho-tyrosine antibodies (clone PT66) labeled with the TR-FRET europium chelate donor dye are added to a final concentration of 2 nM in a final volume of 20 μL. The TR-FRET signal emitted at 665 nm is read one hour after the addition of antibodies using a TR-FRET plate reader such as the Envision® Multilabel Plate reader (PerkinElmer). The emitted signal at 665 nm is proportional to the extent of peptide phosphorylation, Control reactions indicative of background are performed excluding ATP from the reaction.
(§2) Assay conditions are identical to those used described for FIG. 1.

CTK = target: T2, CTK (Homo sapiens, UniProt P42679); assay: TR-FRET kinase assay, CTK; settings: Kinase Concentration 20 nM; 50 nM ULight-labeled substrate, 200 micromolar ATP, 2 hours
T2 sequence (P42679 1-507): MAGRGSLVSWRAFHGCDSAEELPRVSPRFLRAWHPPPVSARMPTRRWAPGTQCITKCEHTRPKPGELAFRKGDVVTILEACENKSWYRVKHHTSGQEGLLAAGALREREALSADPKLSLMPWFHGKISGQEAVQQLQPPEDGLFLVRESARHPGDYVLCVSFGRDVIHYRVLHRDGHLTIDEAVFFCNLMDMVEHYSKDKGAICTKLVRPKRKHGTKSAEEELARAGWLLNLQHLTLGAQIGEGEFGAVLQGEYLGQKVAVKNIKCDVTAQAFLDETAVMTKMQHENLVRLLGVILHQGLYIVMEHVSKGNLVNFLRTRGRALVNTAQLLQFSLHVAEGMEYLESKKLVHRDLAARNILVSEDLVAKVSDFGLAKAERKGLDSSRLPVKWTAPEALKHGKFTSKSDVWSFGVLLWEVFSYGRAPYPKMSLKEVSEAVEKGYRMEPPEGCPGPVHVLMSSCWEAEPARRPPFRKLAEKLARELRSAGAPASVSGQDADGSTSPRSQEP
Description: as §1, §2

JAK2 = JAK2 (Homo sapiens, UniProt O60674); assay: TR-FRET kinase assay, JAK2; settings: Kinase Concentration 1 nM; 50 nM ULight-labeled substrate, 200 micromolar ATP, 2 hours
Description: as §1, §2

FER = FER (Homo sapiens, UniProt P16591); assay: TR-FRET kinase assay, FER; settings: Kinase Concentration 0.25 nM; 50 nM ULight-labeled substrate, 200 micromolar ATP, 2 hours
Description: as §1, §2

HER4 (ERBB4) = HER4 (ERBB4) (Homo sapiens, UniProt Q15303); assay: TR-FRET kinase assay, HER4 (ERBB4); settings: Kinase Concentration 0.1 nM; 50 nM ULight-labeled substrate, 200 micromolar ATP, 2 hours
Description: as §1, §2

ROS = ROS (Homo sapiens, UniProt P08922); assay: TR-FRET kinase assay, ROS; settings: Kinase Concentration 0.25 nM; 50 nM ULight-labeled substrate, 200 micromolar ATP, 2 hours
Description: as §1, §2

ACK = ACK (Homo sapiens, UniProt Q07912); assay: TR-FRET kinase assay, ACK; settings: Kinase Concentration 20 nM; 50 nM ULight-labeled substrate, 200 micromolar ATP, 2 hours
Description: as §1, §2

LTK = LTK (Homo sapiens, UniProt P29376); assay: TR-FRET kinase assay, LTK; settings: Kinase Concentration 1 nM; 50 nM ULight-labeled substrate, 200 micromolar ATP, 2 hours
Description: as §1, §2

FYN = FYN (Homo sapiens, UniProt P06241); assay: TR-FRET kinase assay, FYN; settings: Kinase Concentration 0.25 nM; 50 nM ULight-labeled substrate, 200 micromolar ATP, 2 hours
Description: as §1, §2

ARG = ARG (Homo sapiens, UniProt P42684); assay: TR-FRET kinase assay, ARG; settings: Kinase Concentration 0.5 nM; 50 nM ULight-labeled substrate, 200 micromolar ATP, 2 hours
Description: as §1, §2

DDR1 = DDR1 (Homo sapiens, UniProt Q08345); assay: TR-FRET kinase assay, DDR1; settings: Kinase Concentration 0.5 nM; 50 nM ULight-labeled substrate, 200 micromolar ATP, 2 hours
Description: as §1, §2

IGF1R = IGF1R (Homo sapiens, UniProt P08069); assay: TR-FRET kinase assay, IGF1R; settings: Kinase Concentration 0.25 nM; 50 nM ULight-labeled substrate, 200 micromolar ATP, 2 hours
Description: as §1, §2

HER2 = HER2 (Homo sapiens, UniProt P04626); assay: TR-FRET kinase assay, HER2; settings: Kinase Concentration 10 nM; 50 nM ULight-labeled substrate, 200 micromolar ATP, 2 hours
Description: as §1, §2

PDGFRa = PDGFRa (Homo sapiens, UniProt P16234); assay: TR-FRET kinase assay, PDGFRa; settings: Kinase Concentration 0.5 nM; 50 nM ULight-labeled substrate, 200 micromolar ATP, 2 hours
Description: as §1, §2

ROS, sequence (P08922 28-2347, species assumed): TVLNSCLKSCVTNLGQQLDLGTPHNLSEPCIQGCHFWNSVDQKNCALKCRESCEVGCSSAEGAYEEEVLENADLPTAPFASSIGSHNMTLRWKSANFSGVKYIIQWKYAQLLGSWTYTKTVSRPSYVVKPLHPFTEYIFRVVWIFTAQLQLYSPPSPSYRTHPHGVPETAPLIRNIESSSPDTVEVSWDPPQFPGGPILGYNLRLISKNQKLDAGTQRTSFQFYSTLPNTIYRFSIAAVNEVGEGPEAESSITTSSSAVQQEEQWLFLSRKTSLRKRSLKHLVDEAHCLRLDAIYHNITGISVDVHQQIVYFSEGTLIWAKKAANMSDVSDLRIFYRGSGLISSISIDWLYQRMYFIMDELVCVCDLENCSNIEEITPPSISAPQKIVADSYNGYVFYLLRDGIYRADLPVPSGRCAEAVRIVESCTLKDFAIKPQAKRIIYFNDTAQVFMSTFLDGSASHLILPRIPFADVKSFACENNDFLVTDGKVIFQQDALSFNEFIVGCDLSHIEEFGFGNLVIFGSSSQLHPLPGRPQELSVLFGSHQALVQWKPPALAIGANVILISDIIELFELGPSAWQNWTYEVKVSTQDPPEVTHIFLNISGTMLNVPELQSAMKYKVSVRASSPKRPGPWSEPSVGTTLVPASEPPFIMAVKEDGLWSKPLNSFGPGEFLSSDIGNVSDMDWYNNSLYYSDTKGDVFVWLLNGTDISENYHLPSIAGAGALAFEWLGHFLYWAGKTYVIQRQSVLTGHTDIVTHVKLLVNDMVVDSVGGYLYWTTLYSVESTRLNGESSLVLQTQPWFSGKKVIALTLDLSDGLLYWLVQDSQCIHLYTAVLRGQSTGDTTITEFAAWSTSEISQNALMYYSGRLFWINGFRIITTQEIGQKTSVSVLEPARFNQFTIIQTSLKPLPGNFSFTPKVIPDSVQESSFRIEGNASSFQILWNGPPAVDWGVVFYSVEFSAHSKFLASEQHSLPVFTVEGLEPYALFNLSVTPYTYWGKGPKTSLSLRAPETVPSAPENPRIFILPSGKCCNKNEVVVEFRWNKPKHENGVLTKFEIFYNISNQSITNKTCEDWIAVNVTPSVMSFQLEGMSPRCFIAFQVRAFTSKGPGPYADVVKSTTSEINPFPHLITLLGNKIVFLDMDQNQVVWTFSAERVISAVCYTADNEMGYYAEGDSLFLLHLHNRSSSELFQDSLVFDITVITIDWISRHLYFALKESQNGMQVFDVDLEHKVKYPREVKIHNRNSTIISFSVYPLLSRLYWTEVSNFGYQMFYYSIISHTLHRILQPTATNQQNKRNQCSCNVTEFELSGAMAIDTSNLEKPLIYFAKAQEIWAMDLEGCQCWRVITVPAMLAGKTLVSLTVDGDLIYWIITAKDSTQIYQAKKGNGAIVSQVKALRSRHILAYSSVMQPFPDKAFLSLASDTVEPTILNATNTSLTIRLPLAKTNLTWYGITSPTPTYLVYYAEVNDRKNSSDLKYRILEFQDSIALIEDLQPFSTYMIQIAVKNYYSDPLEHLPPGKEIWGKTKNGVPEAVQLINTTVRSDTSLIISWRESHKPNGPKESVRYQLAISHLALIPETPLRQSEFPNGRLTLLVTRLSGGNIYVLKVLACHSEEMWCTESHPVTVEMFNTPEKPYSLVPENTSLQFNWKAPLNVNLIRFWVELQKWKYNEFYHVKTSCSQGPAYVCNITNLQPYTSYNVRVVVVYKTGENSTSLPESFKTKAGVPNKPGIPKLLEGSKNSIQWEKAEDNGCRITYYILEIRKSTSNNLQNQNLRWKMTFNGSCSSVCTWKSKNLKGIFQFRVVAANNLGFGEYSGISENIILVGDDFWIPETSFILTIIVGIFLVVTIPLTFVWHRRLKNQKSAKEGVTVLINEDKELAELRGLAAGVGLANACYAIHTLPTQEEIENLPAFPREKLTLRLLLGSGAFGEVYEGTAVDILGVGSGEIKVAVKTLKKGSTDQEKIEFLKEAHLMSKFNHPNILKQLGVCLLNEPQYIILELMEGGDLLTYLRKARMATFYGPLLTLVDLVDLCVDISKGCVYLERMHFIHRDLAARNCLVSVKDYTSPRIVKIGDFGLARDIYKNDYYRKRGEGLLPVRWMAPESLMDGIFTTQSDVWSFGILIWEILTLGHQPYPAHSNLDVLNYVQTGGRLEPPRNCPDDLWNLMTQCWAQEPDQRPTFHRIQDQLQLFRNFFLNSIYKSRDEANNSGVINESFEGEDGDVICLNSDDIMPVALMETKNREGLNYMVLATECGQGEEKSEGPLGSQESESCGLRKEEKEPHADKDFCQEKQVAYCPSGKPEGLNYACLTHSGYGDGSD
ACK, sequence (Q07912 whole entry): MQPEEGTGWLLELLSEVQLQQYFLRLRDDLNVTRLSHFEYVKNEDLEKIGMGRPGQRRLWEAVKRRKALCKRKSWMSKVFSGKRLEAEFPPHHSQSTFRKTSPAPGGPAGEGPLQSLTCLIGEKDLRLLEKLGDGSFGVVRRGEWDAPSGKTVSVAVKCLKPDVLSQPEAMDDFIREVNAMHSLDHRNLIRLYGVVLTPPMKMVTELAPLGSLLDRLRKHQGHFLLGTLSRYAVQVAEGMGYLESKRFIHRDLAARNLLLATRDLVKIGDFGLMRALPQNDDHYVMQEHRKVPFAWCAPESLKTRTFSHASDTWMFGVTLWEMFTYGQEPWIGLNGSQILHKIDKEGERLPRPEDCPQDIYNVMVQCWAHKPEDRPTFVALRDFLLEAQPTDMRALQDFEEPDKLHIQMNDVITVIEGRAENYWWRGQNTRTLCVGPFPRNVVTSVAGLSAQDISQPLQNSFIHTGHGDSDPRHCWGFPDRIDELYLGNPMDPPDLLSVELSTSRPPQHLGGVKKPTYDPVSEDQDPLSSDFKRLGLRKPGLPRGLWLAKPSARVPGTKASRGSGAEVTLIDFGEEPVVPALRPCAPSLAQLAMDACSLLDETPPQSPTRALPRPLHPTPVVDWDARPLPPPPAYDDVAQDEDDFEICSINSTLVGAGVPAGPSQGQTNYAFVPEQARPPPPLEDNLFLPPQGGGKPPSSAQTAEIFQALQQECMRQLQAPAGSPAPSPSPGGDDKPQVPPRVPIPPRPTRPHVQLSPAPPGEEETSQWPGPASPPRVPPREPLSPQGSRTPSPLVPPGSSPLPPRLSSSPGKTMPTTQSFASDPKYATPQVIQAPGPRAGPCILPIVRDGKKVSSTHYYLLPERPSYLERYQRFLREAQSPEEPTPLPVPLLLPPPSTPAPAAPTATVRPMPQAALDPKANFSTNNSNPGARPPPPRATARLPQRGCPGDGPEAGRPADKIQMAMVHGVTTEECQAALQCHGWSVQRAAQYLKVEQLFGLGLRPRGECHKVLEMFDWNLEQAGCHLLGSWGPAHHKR
FYN, sequence (P06241 whole entry, species assumed): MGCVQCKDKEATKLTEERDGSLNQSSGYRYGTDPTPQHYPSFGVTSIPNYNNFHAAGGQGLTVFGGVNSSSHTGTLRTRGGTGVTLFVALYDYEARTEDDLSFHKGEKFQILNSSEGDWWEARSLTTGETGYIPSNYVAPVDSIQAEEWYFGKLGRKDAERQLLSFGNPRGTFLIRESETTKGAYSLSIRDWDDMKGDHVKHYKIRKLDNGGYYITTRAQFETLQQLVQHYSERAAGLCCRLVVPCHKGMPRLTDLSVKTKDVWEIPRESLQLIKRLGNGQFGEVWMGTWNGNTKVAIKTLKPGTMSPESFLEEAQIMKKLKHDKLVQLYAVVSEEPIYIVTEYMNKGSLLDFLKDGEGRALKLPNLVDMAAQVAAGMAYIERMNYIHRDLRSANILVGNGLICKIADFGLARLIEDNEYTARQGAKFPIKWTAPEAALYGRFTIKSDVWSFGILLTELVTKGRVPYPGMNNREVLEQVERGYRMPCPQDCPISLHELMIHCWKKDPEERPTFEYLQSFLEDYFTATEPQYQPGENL
PDGFRa, sequence (P16234 24-1089, species assumed): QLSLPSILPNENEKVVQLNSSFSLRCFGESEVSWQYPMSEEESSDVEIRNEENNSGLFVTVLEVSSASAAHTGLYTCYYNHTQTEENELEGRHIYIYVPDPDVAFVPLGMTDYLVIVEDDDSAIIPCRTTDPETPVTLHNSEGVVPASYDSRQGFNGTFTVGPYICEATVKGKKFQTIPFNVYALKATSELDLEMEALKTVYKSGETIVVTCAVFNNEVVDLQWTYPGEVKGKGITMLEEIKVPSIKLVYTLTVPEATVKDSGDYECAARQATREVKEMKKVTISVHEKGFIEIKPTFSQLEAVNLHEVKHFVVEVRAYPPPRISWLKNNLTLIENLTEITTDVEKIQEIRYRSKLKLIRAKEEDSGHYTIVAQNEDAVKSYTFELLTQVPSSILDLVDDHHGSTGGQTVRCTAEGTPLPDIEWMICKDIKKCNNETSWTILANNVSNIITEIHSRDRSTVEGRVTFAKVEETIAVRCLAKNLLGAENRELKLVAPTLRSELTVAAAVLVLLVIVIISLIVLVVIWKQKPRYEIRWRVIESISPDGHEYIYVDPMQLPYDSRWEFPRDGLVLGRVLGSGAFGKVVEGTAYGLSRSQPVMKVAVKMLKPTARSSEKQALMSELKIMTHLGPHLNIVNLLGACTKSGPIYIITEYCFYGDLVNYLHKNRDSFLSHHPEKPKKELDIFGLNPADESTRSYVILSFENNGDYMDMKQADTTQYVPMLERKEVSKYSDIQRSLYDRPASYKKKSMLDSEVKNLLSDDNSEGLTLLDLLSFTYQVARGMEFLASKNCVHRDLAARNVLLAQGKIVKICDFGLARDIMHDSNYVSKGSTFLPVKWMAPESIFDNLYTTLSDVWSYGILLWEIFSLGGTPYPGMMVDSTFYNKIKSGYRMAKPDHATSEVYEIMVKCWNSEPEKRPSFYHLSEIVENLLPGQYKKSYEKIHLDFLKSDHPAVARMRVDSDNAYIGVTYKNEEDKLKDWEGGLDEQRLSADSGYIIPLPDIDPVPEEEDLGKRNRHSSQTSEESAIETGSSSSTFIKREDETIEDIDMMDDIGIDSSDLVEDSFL

C AYE AYE AYE K EYA EYA EYA K AYA EYE R (CAYEAYEAYEKEYAEYAEYAKAYAEYER; tyrosine kinase substrate peptide) [BRB1]
Signal to Noise ratio with BRB1 Peptide (EphA6): 5.4 | Signal to Noise ratio with BRB1 Peptide (CTK): 2.5 | Signal to Noise ratio with BRB1 Peptide (JAK2): 35.5 | Signal to Noise ratio with BRB1 Peptide (FER): 31.0 | Signal to Noise ratio with BRB1 Peptide (HER4 (ERBB4)): 3.1 | Signal to Noise ratio with BRB1 Peptide (ROS): 24.5 | Signal to Noise ratio with BRB1 Peptide (ACK): 17.3 | Signal to Noise ratio with BRB1 Peptide (LTK): 13.7 | Signal to Noise ratio with BRB1 Peptide (FYN): 25.9 | Signal to Noise ratio with BRB1 Peptide (ARG): 10.6 | Signal to Noise ratio with BRB1 Peptide (DDR1): 1.0 | Signal to Noise ratio with BRB1 Peptide (IGF1R): 25.1 | Signal to Noise ratio with BRB1 Peptide (HER2): 1.4 | Signal to Noise ratio with BRB1 Peptide (PDGFRa): 8.0
